Laboratory results published in patent US20210292423A1 (published 2021).

What follows are binders tested against T1, human CD3ε/δ-Fc fusion protein (soluble recombinant CD3ε/δ complex) (human, UniProt P04234 22-105) (assay: SPR Biacore, Fab).
T1 construct: also called huCD3ε/δ; huCD3; not shown: hinge, CH2, CH3 of human IgG with tag
Experimental: (§1) Binding affinities of anti-CD3 binding Fabs or CODV-Fabs were measured by surface plasmon resonance (SPR) using a Biacore3000 instrument (GE Healthcare). Assay buffer was HBS-EP (BR-1001-88, GE Healthcare). Capture of CD3ε/δ-Fc fusion proteins was achieved using the human antibody capture kit (GE Healthcare). […] The CD3εδ-Fc fusions proteins were captured at 10 μl/min to approx. 70 RU to yield Rmax values of 30 RU. Binding kinetics with the anti-CD3 Fabs or CODV-Fabs was measured at 30 μl/min for 240 sec. and 600 sec. for association and dissociation phase, respectively. Twofold dilutions of Fabs from 3 to 400 nM in assay buffer were used. All Fab concentrations were run in duplicate together with duplicate buffer blanks for double referencing. Regeneration of the capture surface was performed with a 1 min injection of 3M MgCl2 solution at 30 μl/min. For data analysis the BIAevaluation software v.4.1 (GE Healthcare) was used. Data were fit globally using a 1:1 Langmuir model with mass transfer.

T1 sequence (chain, as listed by the source mutant, chain 1 of 2): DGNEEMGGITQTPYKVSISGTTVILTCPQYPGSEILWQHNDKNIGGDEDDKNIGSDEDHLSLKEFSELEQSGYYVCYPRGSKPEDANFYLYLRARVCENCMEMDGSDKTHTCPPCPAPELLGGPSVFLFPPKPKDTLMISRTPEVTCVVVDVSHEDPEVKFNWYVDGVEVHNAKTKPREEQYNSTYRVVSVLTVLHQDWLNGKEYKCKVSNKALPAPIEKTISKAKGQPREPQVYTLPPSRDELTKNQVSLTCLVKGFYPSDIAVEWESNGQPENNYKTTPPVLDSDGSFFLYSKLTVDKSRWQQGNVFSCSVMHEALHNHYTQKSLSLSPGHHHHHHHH
T1 sequence (P04234 22-105, stated change not applied, chain 2 of 2): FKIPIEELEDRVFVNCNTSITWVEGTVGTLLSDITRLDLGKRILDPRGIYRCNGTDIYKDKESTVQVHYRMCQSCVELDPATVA

| Kd [nM] | koff [s⁻¹] | kon [M⁻¹ s⁻¹] | Binder |
| --- | --- | --- | --- |
| 1.24 | 0.00185 | 1.5e+06 | humanized 4B4 Fab 4B4_6 (VL1a, VH1A) (Fab, V domains shown, expressed as Fab-fragment) VH: QVQLVETGGGLVKPGQSLKLTCATSGFTFSNAWMHWVRQSPEKGLEWVAQIKARSNNYATYYAESVKGRFTISRDDSKSTIYLQMNSLTPEDTAIYYCRGTYYASKPFDYWGQGVMVTVSS VL: DVVMTQTPVSLSVSVGGRVSISCRSSQSLVHDNGNTYLSWSLQKPGKSPKVLIYKVSNRFSGVSSRFTGSGSGTDFTLKISSVQPDDLGVYYCGQGTQYPFTFGSGTKLEIK |
| 8.91 | 0.00276 | 310000 | humanized 4B4 Fab 4B4_17 (VL2A, VH2B) (Fab, V domains shown, expressed as Fab-fragment) VH: EVQLVETGGGLVQPGGSLKLTCATSGFTFSNAWMHWVRQSPEKGLEWVAQIKARSNNYATYYADSVKGRFTISRDDSKSTIYLQMNSLRAEDTAIYYCRGTYYASKPFDYWGQGVMVTVSS VL: DVVMTQTPVSLSVSPGGPVSISCRSSQSLVHDNGNTYLSWSLQKPGQSPQVLIYKVSNRFSGVSDRFTGSGSGTDFTLKISRVEPDDLGVYYCGQGTQYPFTFGSGTKLEIK |
| 13.4 | 0.00291 | 218000 | humanized 4B4 Fab 4B4_9 (VL2B, VH2A) (Fab, V domains shown, expressed as Fab-fragment) VH: EVQLVETGGGLVQPGGSLKLTCATSGFTFSNAWMHWVRQSPEKGLEWVAQIKARSNNYATYYAESVKGRFTISRDDSKSTIYLQMNSLRAEDTAIYYCRGTYYASKPFDYWGQGVMVTVSS VL: DVVMTQTPVSLSVSPGGPVSISCRSSQSLVHDNANTYLSWSLQKPGQSPQVLIYKVSNRFSGVSDRFTGSGSGTDFTLKISRVEPDDLGVYYCGQGTQYPFTFGSGTKLEIK |
| 8.1 | 0.00248 | 306000 | humanized 4B4 Fab 4B4_7 (VL1b, VH1A) (Fab, V domains shown, expressed as Fab-fragment) VH: QVQLVETGGGLVKPGQSLKLTCATSGFTFSNAWMHWVRQSPEKGLEWVAQIKARSNNYATYYAESVKGRFTISRDDSKSTIYLQMNSLTPEDTAIYYCRGTYYASKPFDYWGQGVMVTVSS VL: DVVMTQTPVSLSVSVGGRVSISCRSSQSLVHDNANTYLSWSLQKPGKSPKVLIYKVSNRFSGVSSRFTGSGSGTDFTLKISSVQPDDLGVYYCGQGTQYPFTFGSGTKLEIK |
| 2.77 | 0.00174 | 628000 | humanized 4B4 Fab 4B4_1 (VL1a, VH1B) (Fab, V domains shown, expressed as Fab-fragment) VH: QVQLVETGGGLVKPGQSLKLTCATSGFTFSNAWMHWVRQSPEKGLEWVAQIKARSNNYATYYAVSVKGRFTISRDDSKSTIYLQMNSLTPEDTAIYYCRGTYYASKPFDYWGQGVMVTVSS VL: DVVMTQTPVSLSVSVGGRVSISCRSSQSLVHDNGNTYLSWSLQKPGKSPKVLIYKVSNRFSGVSSRFTGSGSGTDFTLKISSVQPDDLGVYYCGQGTQYPFTFGSGTKLEIK |
| 7.48 | 0.00214 | 286000 | humanized 4B4 Fab 4B4_2 (VL1b, VH1B) (Fab, V domains shown, expressed as Fab-fragment) VH: QVQLVETGGGLVKPGQSLKLTCATSGFTFSNAWMHWVRQSPEKGLEWVAQIKARSNNYATYYAVSVKGRFTISRDDSKSTIYLQMNSLTPEDTAIYYCRGTYYASKPFDYWGQGVMVTVSS VL: DVVMTQTPVSLSVSVGGRVSISCRSSQSLVHDNANTYLSWSLQKPGKSPKVLIYKVSNRFSGVSSRFTGSGSGTDFTLKISSVQPDDLGVYYCGQGTQYPFTFGSGTKLEIK |
| 9.19 | 0.00399 | 434000 | humanized 4B4 Fab 4B4_10 (VL1_CM2, VH6_BM2) (Fab, V domains shown) VH: QVQLVESGGRVVQPGRSLRLTCAASGFTFSNAWMHWVRQAPGKQLEWVAQIKARSNNYATYYAESVKGRFTISRDDSKSTIYLQMNSLRAEDTAVYYCRGTYYASKPFDYWGQGTTVTVSS VL: DVVMTQSPLSLSVTLGQPVSISCRSSQSLVHDNGNTYLSWSLQRPGQSPRVLIYKVSNRFSGVPDRFSGSGSGTDFTLKISRVEAEDVGVYYCGQGTQYPFTFGSGTKLEIK |
| 33.5 | 0.00171 | 50900 | humanized 4B4 Fab 4B4_20 (VL2F, VH6C) (Fab, V domains shown, expressed as Fab-fragment) VH: QVQLVESGGGVVQPGRSLRLSCAASGFTFSNAWMHWVRQAPGKQLEWVAQIKARSNNYATYYADSVKGRFTISRDDSKSTLYLQMNSLRAEDTAVYYCRGTYYASKPFDYWGQGTLVTVSS VL: DIVMTQTPLSLSVTPGQPASISCKSSQSLVHDNANTYLSWYLQKPGQSPQSLIYKVSNRFSGVPDRFSGSGSGTDFTLKISRVEAEDVGVYYCGQGTQYPFTFGSGTKVEIK |
| 18.2 | 0.00423 | 233000 | humanized 4B4 Fab 4B4_5 (VL2C, VH6D) (Fab, V domains shown, expressed as Fab-fragment) VH: QVQLVESGGGVVQPGRSLRLSCATSGFTFSNAWMHWVRQAPGKQLEWVAQIKARSNNYATYYADSVKGRFTISRDDSKSTIYLQMNSLRAEDTAVYYCRGTYYASKPFDYWGQGTLVTVSS VL: DIVMTQTPLSLSVTPGQPASISCKSSQSLVHDNGNTYLSWSLQKPGQSPQVLIYKVSNRFSGVPDRFSGSGSGTDFTLKISRVEAEDVGVYYCGQGTQYPFTFGSGTKLEIK |

Each binder was assayed against T1, human CD3ε/δ-Fc fusion protein (soluble …) (assay: SPR Biacore, CODV-Fab on recombinant CD3ε/δ).
Experimental: as §1

| Kd [nM] | koff [s⁻¹] | kon [M⁻¹ s⁻¹] | Binder |
| --- | --- | --- | --- |
| 58.7 | 0.00109 | 18600 | CODV-Fab 7G3 × 20G6 with humanized 20G6 VL1D_VH1B (bispecific antibody) light: DIVMTQTPLSLSVTPGQPASISCKSSQSLVHNNGNTYLSWYLQKPGQSPQSLIYKVSNRFSGVPDRFSGSGSGTDFTLKISRVEAEDVGVYYCGQGTQYPFTFGSGTKVEIKGQPKAAPDFVMTQSPSSLTVTAGEKVTMSCKSSQSLLNSGNQKNYLTWYLQKPGQPPKLLIYWASTRESGVPDRFTGSGSGTDFTLTISSVQAEDLAVYYCQNDYSYPYTFGGGTKLEIKTKGPSRTVAAPSVFIFPPSDEQLKSGTASVVCLLNNFYPREAKVQWKVDNALQSGNSQESVTEQDSKDSTYSLSSTLTLSKADYEKHKVYACEVTHQGLSSPVTKSFNRGEC heavy: EVQLQQSGPELVKPGASVKMSCKASGYTFTDYYMKWVKQSHGKSLEWIGDIIPSNGATFYNQKFKGKATLTVDRSSSTAYMHLNSLTSEDSAVYYCTRSHLLRASWFAYWGQGTLVTVSASQVQLVESGGGVVQPGRSLRLSCAASGFTFTKAWMHWVRQAPGKQLEWVAQIKDKSNSYATYYADSVKGRFTISRDNSKNTLYLQMNSLRAEDTAVYYCRGVYYALSPFDYWGQGTLVTVSSRTASTKGPSVFPLAPSSKSTSGGTAALGCLVKDYFPEPVTVSWNSGALTSGVHTFPAVLQSSGLYSLSSVVTVPSSSLGTQTYICNVNHKPSNTKVDKKVEPKSCDKTHTHHHHHH |
| 152 | 0.00434 | 28600 | CODV-Fab 7G3 × 20G6 with humanized 20G6 VL1A_VH1A (bispecific antibody) light: DIVMTQTPLSLSVTPGQPASISCKSSQSLVHNNGNTYLSWYLQKPGQSPQLLIYKVSNRFSGVPDRFSGSGSGTDFTLKISRVEAEDVGVYYCGQGTQYPFTFGQGTKLEIKGQPKAAPDFVMTQSPSSLTVTAGEKVTMSCKSSQSLLNSGNQKNYLTWYLQKPGQPPKLLIYWASTRESGVPDRFTGSGSGTDFTLTISSVQAEDLAVYYCQNDYSYPYTFGGGTKLEIKTKGPSRTVAAPSVFIFPPSDEQLKSGTASVVCLLNNFYPREAKVQWKVDNALQSGNSQESVTEQDSKDSTYSLSSTLTLSKADYEKHKVYACEVTHQGLSSPVTKSFNRGEC heavy: EVQLQQSGPELVKPGASVKMSCKASGYTFTDYYMKWVKQSHGKSLEWIGDIIPSNGATFYNQKFKGKATLTVDRSSSTAYMHLNSLTSEDSAVYYCTRSHLLRASWFAYWGQGTLVTVSASQVQLVESGGGVVQPGRSLRLSCAASGFTFTKAWMHWVRQAPGKGLEWVAQIKDKSNSYATYYADSVKGRFTISRDNSKNTLYLQMNSLRAEDTAVYYCRGVYYALSPFDYWGQGTLVTVSSRTASTKGPSVFPLAPSSKSTSGGTAALGCLVKDYFPEPVTVSWNSGALTSGVHTFPAVLQSSGLYSLSSVVTVPSSSLGTQTYICNVNHKPSNTKVDKKVEPKSCDKTHTHHHHHH |
| 138 | 0.00414 | 29900 | CODV-Fab 7G3 × 20G6 with humanized 20G6 VL1B_VH1A (bispecific antibody) light: DIVMTQTPLSLSVTPGQPASISCKSSQSLVHNNGNTYLSWYLQKPGQSPQLLIYKVSNRFSGVPDRFSGSGSGTDFTLKISRVEAEDVGVYYCGQGTQYPFTFGGGTKVEIKGQPKAAPDFVMTQSPSSLTVTAGEKVTMSCKSSQSLLNSGNQKNYLTWYLQKPGQPPKLLIYWASTRESGVPDRFTGSGSGTDFTLTISSVQAEDLAVYYCQNDYSYPYTFGGGTKLEIKTKGPSRTVAAPSVFIFPPSDEQLKSGTASVVCLLNNFYPREAKVQWKVDNALQSGNSQESVTEQDSKDSTYSLSSTLTLSKADYEKHKVYACEVTHQGLSSPVTKSFNRGEC heavy: EVQLQQSGPELVKPGASVKMSCKASGYTFTDYYMKWVKQSHGKSLEWIGDIIPSNGATFYNQKFKGKATLTVDRSSSTAYMHLNSLTSEDSAVYYCTRSHLLRASWFAYWGQGTLVTVSASQVQLVESGGGVVQPGRSLRLSCAASGFTFTKAWMHWVRQAPGKGLEWVAQIKDKSNSYATYYADSVKGRFTISRDNSKNTLYLQMNSLRAEDTAVYYCRGVYYALSPFDYWGQGTLVTVSSRTASTKGPSVFPLAPSSKSTSGGTAALGCLVKDYFPEPVTVSWNSGALTSGVHTFPAVLQSSGLYSLSSVVTVPSSSLGTQTYICNVNHKPSNTKVDKKVEPKSCDKTHTHHHHHH |
